The values that follow come from patent US20260217833A1 (APTEVO RESEARCH AND DEVELOPMENT, published 2026).

Assay [1] deals with T1, human CD40 full-length (human, UniProt P25942 21-277).
T1 construct: Also used for CD40 of Daudi cells, of CD40-expressing HEK293 cells and of the BPS CD40/NFkB HEK293 reporter cells where the row says so; also called CD4001012; CHOK1SV/CD40
Description: on-cell binding.

Assay [2] addresses T1, human CD40 full-length. In words: flow cytometry, CHOK1SV/human CD40 cells. For orientation: In flow cytometry, cells or beads pass a laser one at a time.
Assay [3] deals with T2, Human PD-L1 full-length (human, UniProt Q9NZQ7 19-290).
T2 construct: also called PDL01021; CHOK1SV/huPDL1
In words: flow cytometry, CHOK1SV/human PD-L1 cells.

In assay [4] the target is T2, Human PD-L1 full-length. Description: flow cytometry, CHOK1SV/human PD-L1 cells. This is another data set of the same source.
For assay [5], the target named is T3, human neonatal Fc receptor (FcRn, complexed with beta-2-macroglobulin) (human, UniProt P55899 24-297; P61769 21-119).
T3 construct: also called Human FcRn/b2m
In words: SPR, FcRn/b2m immobilized, bispecific injected, pH 6.0, two-state reaction fit. Background: In SPR one partner is held on a chip, and binding of the other changes the refractive index at the surface.

Assay [6] addresses T4, Cynomolgus CHOK1SV/CD40.
T4 construct: also called Cyno CD40 full-length; CD4001013
T4 receptor chain: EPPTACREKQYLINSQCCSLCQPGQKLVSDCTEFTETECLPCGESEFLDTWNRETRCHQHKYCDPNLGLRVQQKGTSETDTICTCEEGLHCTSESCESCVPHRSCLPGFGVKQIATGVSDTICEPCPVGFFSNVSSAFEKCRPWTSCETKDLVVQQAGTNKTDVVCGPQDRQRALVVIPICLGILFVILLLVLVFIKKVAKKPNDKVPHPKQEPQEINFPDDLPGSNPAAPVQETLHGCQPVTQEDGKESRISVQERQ
Description: flow cytometry, CHOK1SV/cynomolgus CD40 cells.

For a further assay, the target named is T5, human CD40 ECD- HAC tag (human).
T5 construct: also called CD4001006; recombinant monomeric human CD40 ectodomain (ECD)
Description: SPR (Biacore T200), bispecific captured on the chip, monovalent CD40 ECD injected.

The target in assay [7] is T1, human CD40 full-length. Description: flow cytometry, Daudi cells (endogenous CD40).
Assay [8] addresses T4, Cynomolgus CHOK1SV/CD40. In words: flow cytometry, CHOK1SV/cynomolgus CD40 cells.
The target of assay [9] is T1, human CD40 full-length. In words: binding to cells expressing full length human- or cyno-CD40, unpurified small-scale material.

Read-outs that look alike come from different tables or passages of the source.

By EC50 (read off the curve) is commonly meant the concentration that produces a half-maximal response. The term Kd denotes a measure of binding affinity in units of concentration. As a reminder, the koff is the rate constant with which the complex falls apart. Read a low koff as slow dissociation. What is called kon is the rate constant with which the complex forms. Higher therefore signals faster complex formation.

T2 sequence (Q9NZQ7 19-290): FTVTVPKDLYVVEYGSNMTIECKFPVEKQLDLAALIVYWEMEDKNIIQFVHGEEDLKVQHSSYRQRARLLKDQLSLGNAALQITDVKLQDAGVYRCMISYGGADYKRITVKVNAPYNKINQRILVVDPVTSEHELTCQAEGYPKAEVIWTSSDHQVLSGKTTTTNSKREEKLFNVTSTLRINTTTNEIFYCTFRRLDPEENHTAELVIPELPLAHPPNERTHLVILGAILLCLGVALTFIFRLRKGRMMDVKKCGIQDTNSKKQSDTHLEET
T3 sequence (P55899 24-297 limits assumed, chain 1 of 2): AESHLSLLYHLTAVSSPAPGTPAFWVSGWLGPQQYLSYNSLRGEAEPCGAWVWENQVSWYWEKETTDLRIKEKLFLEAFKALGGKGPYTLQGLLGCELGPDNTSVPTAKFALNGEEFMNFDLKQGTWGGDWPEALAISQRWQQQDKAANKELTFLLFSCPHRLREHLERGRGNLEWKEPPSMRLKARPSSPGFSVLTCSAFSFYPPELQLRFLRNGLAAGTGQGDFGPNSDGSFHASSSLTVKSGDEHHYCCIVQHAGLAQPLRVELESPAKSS
T3 sequence (P61769 21-119 limits assumed, chain 2 of 2): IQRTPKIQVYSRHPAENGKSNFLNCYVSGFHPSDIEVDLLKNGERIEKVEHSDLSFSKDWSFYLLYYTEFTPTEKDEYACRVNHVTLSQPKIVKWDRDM

B1: CD4001152 (Fc fusion)
scFv: QIVMTQSPDSLALSLGERATMNCKSSQSLLFSVNQKNYLAWYQQKPGQAPRLLIYWASTRESGVPDRFSGSGSGTDFTLTISRLEPEDVATYYCQHYYSYPWTFGAGTKLEIKGGGGSGGGGSGGGGSGGGGSQVQLVQSGAEVKKPGASVKVSCKASGYTFSTSWIEWVRQAPGQGLEWIGEILPGSGSTNYAQKFQGRATFTADTSTSTAYMELSSLRSEDTAVYYCARGDDGSYVRWYFDVWGQGTTVTVSS
notes: Humanized 1D5 scFv variant, as told of in Fc-scFv format; not shown: the human Fc and any Fc-scFv linker; neither the Fc entry nor the scFv position (N- or C-terminal) is fixed for this construct
As to B1, the binding result in the assay with human CD40 full-length [1] was “no binding”.

B2: CD4001103 (Fc fusion)
scFv: QIVMTQSPGTLSLSPGERATMTCKSSQSLLFSVNQKNYLAWYQQKPGQAPRLLIYWASTRESGVPDRFSGSGSGTDFTLTISRLEPEDAATYYCQHYYSYPWTFGAGTKLEIKGGGGSGGGGSGGGGSGGGGSQVKLVQSGAEVKKPGASVKVSCKASGYTFSTSWIEWIRQAPGQGLEWIGEILPGSGSTNYAQKFQGRATFTADTSTSTAYMELSSLRSEDTAVYYCARGDDGSYVRWYFDVWGQGTTVTVSS
notes: As m82; not shown: the human Fc (hinge-CH2-CH3) of the scFv-hFc format
For the molecule B2, in the assay with human CD40 full-length [2], the binding result is “binds”.

B3: CD4001163 (Fc fusion)
scFv: QIVMTQSPDSLAVSLGERATINCKSSQSLLFSVNQKNYLAWYQQKPGQAPRLLIYWASTRESGVPDRFSGSGSGTDFTLTISRLEPEDVATYYCQHYYSYPWTFGAGTKVEIKGGGGSGGGGSGGGGSGGGGSQVQLVQSGAEVKKPGASVKVSCKASGYTFSTSWMEWVRQAPGQGLEWMGEILPGSGSTNYAQKFQGRVTMTRDTSTSTVYMELSSLRSEDTAVYYCARGDDGSYVRWYFDVWGQGTTVTVSS
notes: As m85; not shown: Fc (hinge-CH2-CH3) and any Fc-scFv linker of the tested fusion
On to B3, for which the binding result with human CD40 full-length [1] is “no binding”.

B4: PC401003 (bispecific antibody)
chain: DIQMTQSPSSLSASVGDRVTITCRASQDINKFLSWYQQKPGKAPKLLIHYTSSLQSGVPSRFSGSGSGTDFTLTISSLQPEDFATYYCLQYDNLYTFGQGTKLEIKGGGGSGGGGSGGGGSGGGGSEVQLVESGGGLVQPGGSLRLSCAASGFTFSDYGMAWVRQAPGKGLEWVSFITSLAYIIYYADSVKGRFTISRDNAKNSLYLQMNSLRAEDTAVYYCARNYGSSPYYFDYWGQGTLVTVSSEPKSSDKTHTCPPCPAPPAAAPSVFLFPPKPKDTLMISRTPEVTCVVVDVSHEDPEVKFNWYVDGVEVHNAKTKPREEQYNSTYRVVSVLTVLHQDWLNGKEYKCAVSNKALPAPIEKTISKAKGQPREPQVYTLPPSRDELTKNQVSLTCLVKGFYPSDIAVEWESNGQPENNYKTTPPVLDSDGSFFLYSKLTVDKSRWQQGNVFSCSVMHEALHNHYTQKSLSLSPGGGGSPSDIQMTQSPSSVSASVGDRVTITCRASQSLLFSVNQKNYLAWYQQKPGKAPKLLIYWASSLQSGVPSRFSGSGSGTDFTLTISSLQPEDFATYYCQHYYSYPWTFGQGTKVEIKGGGGSGGGGSGGGGSGGGGSQVQLVQSGAEVKKPGSSVKVSCKASGYTFSTSWIEWIRQAPGQGLEWMGSILPGSGSTNYAQKFQGRVTITADTSTSTAYMELSSLRSEDTAVYYCARGDDGSYVRWYFDHWGQGTLVTVSS
notes: also called Parent; DDG (Original)
Turning to B4, the “EC50 (read off the curve)” value in the assay with Human PD-L1 full-length [3] and with Human PD-L1 full-length [4] was around 3 nM each time. Also, binding in [5] was characterised by a dissociation constant (Kd) of 121 nM. Further, in the assay with Cynomolgus CHOK1SV/CD40 [6], the binding result is “binds”.

B5: PC401144 (bispecific antibody)
chain: DIQMTQSPSSLSASVGDRVTITCRASQDINKFLSWYQQKPGKAPKLLIHYTSSLQSGVPSRFSGSGSGTDFTLTISSLQPEDFATYYCLQYDNLYTFGQGTKLEIKGGGGSGGGGSGGGGSGGGGSEVQLVESGGGLVQPGGSLRLSCAASGFTFSDYGMAWVRQAPGKGLEWVSFITSLAYIIYYADSVKGRFTISRDNAKNSLYLQMNSLRAEDTAVYYCARNYGSSPYYFDYWGQGTLVTVSSEPKSSDKTHTCPPCPAPPAAAPSVFLFPPKPKDTLMISRTPEVTCVVVDVSHEDPEVKFNWYVDGVEVHNAKTKPREEQYNSTYRVVSVLTVLHQDWLNGKEYKCAVSNKALPAPIEKTISKAKGQPREPQVYTLPPSRDELTKNQVSLTCLVKGFYPSDIAVEWESNGQPENNYKTTPPVLDSDGSFFLYSKLTVDKSRWQQGNVFSCSVMHEALHNHYTQKSLSLSPGGGGSPSDIQMTQSPSSVSASVGDRVTITCRASQSLTFSVNQKNYLAWYQQKPGKAPKLLIYWASSLQSGVPSRFSGSGSGTDFTLTISSLQPEDFATYYCQHYYSYPWTFGCGTKVEIKGGGGSGGGGSGGGGSGGGGSQVQLVQSGAEVKKPGSSVKVSCKASGYTFSTSWIEWIRQAPGQCLEWMGSILPGSGSTNYNQKFQGRVTITADTSTSTAYMELSSLRSEDTAVYYCARGDDGSYNRWYFDHWGQGTLVTVSS
For B5, in the assay with human CD40 ECD- HAC tag, the Kd came to 81 nM, the koff was 0.00059 s⁻¹ and the kon turned out to be 7300 M⁻¹ s⁻¹. In addition, the binding result in the assay with human CD40 full-length [7] is “binds”. Moreover, in the assay with Cynomolgus CHOK1SV/CD40 [8], the binding result is “binds”. The binding result with Human PD-L1 full-length [4] was “binds”.

B6: PC401145 (bispecific antibody)
chain: DIQMTQSPSSLSASVGDRVTITCRASQDINKFLSWYQQKPGKAPKLLIHYTSSLQSGVPSRFSGSGSGTDFTLTISSLQPEDFATYYCLQYDNLYTFGQGTKLEIKGGGGSGGGGSGGGGSGGGGSEVQLVESGGGLVQPGGSLRLSCAASGFTFSDYGMAWVRQAPGKGLEWVSFITSLAYIIYYADSVKGRFTISRDNAKNSLYLQMNSLRAEDTAVYYCARNYGSSPYYFDYWGQGTLVTVSSEPKSSDKTHTCPPCPAPPAAAPSVFLFPPKPKDTLMISRTPEVTCVVVDVSHEDPEVKFNWYVDGVEVHNAKTKPREEQYNSTYRVVSVLTVLHQDWLNGKEYKCAVSNKALPAPIEKTISKAKGQPREPQVYTLPPSRDELTKNQVSLTCLVKGFYPSDIAVEWESNGQPENNYKTTPPVLDSDGSFFLYSKLTVDKSRWQQGNVFSCSVMHEALHNHYTQKSLSLSPGGGGSPSDIQMTQSPSSVSASVGDRVTITCRASQSLLFSVNQKNYLAWYQQKPGKAPKLLIYWASSLQSGVPSRFSGSGSGTDFTLTISSLQPEDFATYYCQHYYSYPWTFGCGTKVEIKGGGGSGGGGSGGGGSGGGGSQVQLVQSGAEVKKPGSSVKVSCKASGYTFSTSWIEWIRQAPGQCLEWMGSILPGSGSTNYNQKFQGRVTITADTSTSTAYMELSSLRSEDTAVYYCARGDDGSYNRWYFDHWGQGTLVTVSS
Consider B6, for which, in the assay with human CD40 ECD- HAC tag, the Kd turned out to be 81 nM, the koff turned out to be 0.00061 s⁻¹ and the kon was determined as 7600 M⁻¹ s⁻¹. In addition, the binding result with human CD40 full-length [7] is “binds”. In addition, the binding result with Cynomolgus CHOK1SV/CD40 [8] is “binds”. For the same molecule, the binding result with Human PD-L1 full-length [4] was “binds”.

B7: CD4001090 (Fc fusion)
chain: EVVMTQSPDFQSVTPKEKVTITCRSSQSLVHYNGYTYLHWYQQKPDQSPKLLIYKVSNRFSGVPSRFSGSGSGTDFTLTINSLEAEDAAAYFCSQTTHVPLTFGPGTKVDIKGGGGSGGGGSGGGGSGGGGSEVQLVESGGGVVQPGRSLRLSCAASGFTFSSYAMSWVRQAPGKGLEWVASISSAGTYIYYADSVKGRFTISRDNSKNTLYLQMNGLRAEDTAVYYCARHGNGYDPLWYFDVWGQGTLVTVSS
notes: As m65; not shown: wildtype IgG1 Fc region
For B7, the binding result with human CD40 full-length [9] is “binds”.

B8: CD4001099 (Fc fusion)
chain: EVVMTQSPDFQSVTPKEKVTITCRSSQSLVHYNGYTYLHWYQQKPDQSPKLLIYKVSNRFSGVPSRFSGSGSGTDFTLTINSLEAEDAAAYFCSQTTHVPLTFGPGTKVDIKGGGGSGGGGSGGGGSGGGGSEVQLVESGGGLEQPGGSLRLSCAASGFTFSSYAMSWVRQAPGKGLEWVASISSAGTYIYYADSVKGRFTISRDNSKNTLYLQMNSLRAEDTAVYYCARHGNGYDPLWYFDVWGQGTTVTVSS
notes: as for B7
B8: in the assay with human CD40 full-length [9], the binding result was “binds”.

B9: CD4001088 (Fc fusion)
chain: EVVMTQSPDFQSVTPKEKVTITCRSSQSLVHYNGYTYLHWYQQKPDQSPKLLIYKVSNRFSGVPSRFSGSGSGTDFTLTINSLEAEDAAAYFCSQTTHVPLTFGPGTKVDIKGGGGSGGGGSGGGGSGGGGSEVQLVESGGGLVQPGRSLRLSCAASGFTFSSYAMSWVRQAPGKGLEWVASISSAGTYIYYADSVQGRFTISRDNGKNSLYLQMNSLRAEDTALYYCARHGNGYDPLWYFDVWGQGTMVTVSS
notes: as for B7
As for B9, the binding result in the assay with human CD40 full-length [9] is recorded as “binds”.
